Laboratory results reported in patent US20210401786A1, “COMPOSITION FOR TREATING BURN WOUNDS” (priority 2020, published 2021).

System: human non-healing burn wounds
Assay: Wound healing in patients with non-healing burn wounds
Assay type: in vivo
Settings: for Wound healing time (X +/− S): patients, completely healed cases
Procedure: In this application, medical records of 430 patients, including 368 male and 60 female, aged from 1 to 70 years old, with a clinical diagnosis of at least one non-healing burn wound were collected. The burn injury includes 150 cases of hydrothermal burns, 167 cases of flame burns, 84 cases of electric burns, and 29 cases of chemical burns. […] The non-healing wounds of 430 patients were treated with the composition of Example 3 of the present invention (49 cases), surgery (197 cases), and conventional treatment (rhEGF therapy) (184 cases). There were no statistically significant differences observed among the groups in terms of gender, age, and wound area (p>0.05) (The comparison results of the differences in terms of various factors are shown in Tables 5, 6 and 7).
Among the 49 patients in the present invention, the wound was completely healed in 31 cases (63.27%), effectively healed in 15 cases (30.61%), improved in 2 cases (4.08%), and not healed in 1 case (2.04%). Among the 197 patients in the surgery group, the wound was completely healed in 152 cases (77.15%), effectively healed in 39 cases (19.80%), improved in 6 cases (3.05%), and not healed in 0 case (0%). Among the 184 patients in the conventional treatment group, the wound was completely healed in 96 cases (52.17%), effectively healed in 56 cases (30.43%), improved in 24 cases (13.05%), and not healed in 8 cases (4.35%). The effect of the present invention on wound healing is analyzed by the total effective rate after receiving different treatments. The total effective rate=(the number of completely healed cases+the number of effectively healed cases)/total number of cases.
The wound healing time of the present invention group, surgery group and conventional dressing group is 19.87±9.10 days, 22.71±11.77 days and 36.71±10.60 days, respectively. […] There is no significant difference in wound healing time between the present invention group and the surgery group (P>0.05).

[1] = patients with non-healing burn wounds
[2] = patients with non-healing burn wounds, listed as conventional treatment

B1: Conventional treatment: conventional treatment (rhEGF therapy) of patients' non-healing burn wounds (protein, UniProt P01133 23-1207, looked up)
Pro-epidermal growth factor: PQHWSCPEGTLAGNGNSTCVGPAPFLIFSHGNSIFRIDTEGTNYEQLVVDAGVSVIMDFHYNEKRIYWVDLERQLLQRVFLNGSRQERVCNIEKNVSGMAINWINEEVIWSNQQEGIITVTDMKGNNSHILLSALKYPANVAVDPVERFIFWSSEVAGSLYRADLDGVGVKALLETSEKITAVSLDVLDKRLFWIQYNREGSNSLICSCDYDGGSVHISKHPTQHNLFAMSLFGDRIFYSTWKMKTIWIANKHTGKDMVRINLHSSFVPLGELKVVHPLAQPKAEDDTWEPEQKLCKLRKGNCSSTVCGQDLQSHLCMCAEGYALSRDRKYCEDVNECAFWNHGCTLGCKNTPGSYYCTCPVGFVLLPDGKRCHQLVSCPRNVSECSHDCVLTSEGPLCFCPEGSVLERDGKTCSGCSSPDNGGCSQLCVPLSPVSWECDCFPGYDLQLDEKSCAASGPQPFLLFANSQDIRHMHFDGTDYGTLLSQQMGMVYALDHDPVENKIYFAHTALKWIERANMDGSQRERLIEEGVDVPEGLAVDWIGRRFYWTDRGKSLIGRSDLNGKRSKIITKENISQPRGIAVHPMAKRLFWTDTGINPRIESSSLQGLGRLVIASSDLIWPSGITIDFLTDKLYWCDAKQSVIEMANLDGSKRRRLTQNDVGHPFAVAVFEDYVWFSDWAMPSVMRVNKRTGKDRVRLQGSMLKPSSLVVVHPLAKPGADPCLYQNGGCEHICKKRLGTAWCSCREGFMKASDGKTCLALDGHQLLAGGEVDLKNQVTPLDILSKTRVSEDNITESQHMLVAEIMVSDQDDCAPVGCSMYARCISEGEDATCQCLKGFAGDGKLCSDIDECEMGVPVCPPASSKCINTEGGYVCRCSEGYQGDGIHCLDIDECQLGEHSCGENASCTNTEGGYTCMCAGRLSEPGLICPDSTPPPHLREDDHHYSVRNSDSECPLSHDGYCLHDGVCMYIEALDKYACNCVVGYIGERCQYRDLKWWELRHAGHGQQQKVIVVAVCVVVLVMLLLLSLWGAHYYRTQKLLSKNPKNPYEESSRDVRSRRPADTEDGMSSCPQPWFVVIKEHQDLKNGGQPVAGEDGQAADGSMQPTSWRQEPQLCGMGTEQGCWIPVSSDKGSCPQVMERSFHMPSYGTQTLEGGVEKPHSLLSANPLWQQRALDPPHQMELTQ
modifications: Pro-epidermal growth factor
notes: conventional treatment (rhEGF therapy) of patients' non-healing burn wounds
Total effective rate (%) ((completely healed + effectively healed cases)/total number of cases): 82.61% ^ | Completely healed case (%) [1]: (52.17%) | Completely healed case, number [1]: 96 cases | Effectively healed case (%) [1]: (30.43%) | Effectively healed case, number [1]: 56 cases | Improved case (%) [1]: (13.05%) | Improved case, number [1]: 24 cases | Not healed case (%) [1]: (4.35%) | Not healed case, number [1]: 8 cases | Completely healed case (%) [2]: 52.17% | Effectively healed case (%) [2]: 30.43% | Improved case (%) [2]: 13.05% | Not healed case (%) [2]: 4.35% | Wound healing time (X +/− S): 36.71 ± 10.60^ days | Wound healing time (X +/− S) (listed as conventional dressing): 36.71 ± 10.60 days
